The labels stand for the following.
B1: Mcm7 (natural protein)
chain: MSAALPSIQLPVDYNNLFNEITDFLVTFKQDTLSSDATRNENEDENLDAENIEQHLLEKGPKYMAMLQKVANRELNSVIIDLDDILQYQNEKFLQGTQADDLVSAIQQNANHFTELFCRAIDNNMPLPTKEIDYKDDVLDVILNQRRLRNERMLSDRTNEIRSENLMDTTMDPPSSMNDALREVVEDETELFPPNLTRRYFLYFKPLSQNCARRYRKKAISSKPLSVRQIKGDFLGQLITVRGIITRVSDVKPAVEVIAYTCDQCGYEVFQEVNSRTFTPLSECTSEECSQNQTKGQLFMSTRASKFSAFQECKIQELSQQVPVGHIPRSLNIHVNGTLVRSLSPGDIVDVTGIFLPAPYTGFKALKAGLLTETYLEAQFVRQHKKKFASFSLTSDVEERVMELITSGDVYNRLAKSIAPEIYGNLDVKKALLLLLVGGVDKRVGDGMKIRGDINVCLMGDPGVAKSQLLKAICKISPRGVYTTGKGSSGVGLTAAVMKDPVTDEMILEGGALVLADNGICCIDEFDKMDESDRTAIHEVMEQQTISISKAGINTTLNARTSILAAANPLYGRYNPRLSPLDNINLPAALLSRFDILFLMLDIPSRDDDEKLAEHVTYVHMHNKQPDLDFTPVEPSKMREYIAYAKTKRPVMSEAVNDYVVQAYIRLRQDSKREMDSKFSFGQATPRTLLGIIRLSQALAKLRLADMVDIDDVEEALRLVRVSKESLYQETNKSKEDESPTTKIFTIIKKMLQETGKNTLSYENIVKTVRLRGFTMLQLSNCIQEYSYLNVWHLINEGNTLKFVDDGTMDTDQEDSLVSTPKLAPQTTASANVSAQDSDIDLQDA

What all share (assay): cryo-EM structure
One experiment has as its target Mcm3 (S. cerevisiae, UniProt P24279 1-971).
For a further experiment, the target named is T1, Mcm4 (S. cerevisiae, UniProt P30665 1-933).
T1 sequence: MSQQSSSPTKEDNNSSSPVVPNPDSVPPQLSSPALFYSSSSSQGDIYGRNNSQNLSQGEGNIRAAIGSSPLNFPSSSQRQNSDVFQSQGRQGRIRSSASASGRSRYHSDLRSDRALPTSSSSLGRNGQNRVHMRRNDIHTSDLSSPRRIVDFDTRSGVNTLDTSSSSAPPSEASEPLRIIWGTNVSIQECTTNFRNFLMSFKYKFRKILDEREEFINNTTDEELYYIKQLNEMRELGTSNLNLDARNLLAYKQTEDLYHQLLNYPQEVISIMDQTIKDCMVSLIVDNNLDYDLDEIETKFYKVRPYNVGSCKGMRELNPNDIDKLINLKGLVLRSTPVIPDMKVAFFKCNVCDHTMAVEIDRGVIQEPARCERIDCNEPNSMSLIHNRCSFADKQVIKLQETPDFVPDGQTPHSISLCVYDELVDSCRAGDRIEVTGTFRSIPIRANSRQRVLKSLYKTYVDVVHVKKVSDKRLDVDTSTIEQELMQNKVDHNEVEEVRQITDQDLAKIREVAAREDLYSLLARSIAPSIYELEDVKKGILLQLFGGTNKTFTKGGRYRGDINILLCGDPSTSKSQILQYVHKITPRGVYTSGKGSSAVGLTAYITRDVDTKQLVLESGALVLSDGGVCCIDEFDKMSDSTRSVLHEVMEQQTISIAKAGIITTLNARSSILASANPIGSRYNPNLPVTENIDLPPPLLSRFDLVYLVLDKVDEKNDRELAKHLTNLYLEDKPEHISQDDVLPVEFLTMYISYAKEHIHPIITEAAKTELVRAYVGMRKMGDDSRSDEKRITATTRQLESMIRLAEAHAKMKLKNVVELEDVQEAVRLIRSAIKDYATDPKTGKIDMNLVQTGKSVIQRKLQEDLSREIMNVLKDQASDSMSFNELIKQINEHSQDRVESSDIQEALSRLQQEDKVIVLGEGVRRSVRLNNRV

In the experiment “Mcm7” the target is B1.

Mcm3, sequence (P24279 whole entry): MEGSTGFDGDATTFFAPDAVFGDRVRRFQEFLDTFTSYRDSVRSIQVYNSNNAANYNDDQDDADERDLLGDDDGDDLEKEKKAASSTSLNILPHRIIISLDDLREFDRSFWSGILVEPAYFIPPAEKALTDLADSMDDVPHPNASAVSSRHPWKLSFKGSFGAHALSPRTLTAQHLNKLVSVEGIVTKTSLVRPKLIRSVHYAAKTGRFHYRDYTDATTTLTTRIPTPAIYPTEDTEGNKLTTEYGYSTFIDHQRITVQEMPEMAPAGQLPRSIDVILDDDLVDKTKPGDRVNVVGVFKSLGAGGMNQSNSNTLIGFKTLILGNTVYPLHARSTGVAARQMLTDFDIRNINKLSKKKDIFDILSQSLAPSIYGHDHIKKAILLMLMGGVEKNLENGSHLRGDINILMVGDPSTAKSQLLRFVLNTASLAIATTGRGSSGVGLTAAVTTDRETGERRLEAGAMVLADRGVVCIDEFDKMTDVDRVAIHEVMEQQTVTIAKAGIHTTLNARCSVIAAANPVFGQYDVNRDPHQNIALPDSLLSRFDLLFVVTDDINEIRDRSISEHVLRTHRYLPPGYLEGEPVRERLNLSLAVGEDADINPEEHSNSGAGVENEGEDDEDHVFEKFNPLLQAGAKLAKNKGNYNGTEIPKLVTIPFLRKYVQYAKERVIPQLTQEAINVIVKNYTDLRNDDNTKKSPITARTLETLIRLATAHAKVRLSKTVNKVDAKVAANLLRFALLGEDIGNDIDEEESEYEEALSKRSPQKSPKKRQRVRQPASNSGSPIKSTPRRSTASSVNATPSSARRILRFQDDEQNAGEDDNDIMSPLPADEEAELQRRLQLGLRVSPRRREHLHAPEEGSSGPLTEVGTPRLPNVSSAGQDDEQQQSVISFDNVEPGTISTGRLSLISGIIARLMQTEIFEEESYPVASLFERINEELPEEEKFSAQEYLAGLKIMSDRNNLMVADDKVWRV

As for B1, the binding result with Mcm3 and in the experiment with Mcm4 was “binds” in each case.

B2: Mcm5 (natural protein)
chain: MSFDRPEIYSAPVLQGESPNDDDNTEIIKSFKNFILEFRLDSQFIYRDQLRNNILVKNYSLTVNMEHLIGYNEDIYKKLSDEPSDIIPLFETAITQVAKRISILSRAQSANNNDKDPENTSMDTDSLLLNSLPTFQLILNSNANQIPLRDLDSEHVSKIVRLSGIIISTSVLSSRATYLSIMCRNCRHTTSITINNFNSITGNTVSLPRSCLSTIESESSMANESNIGDESTKKNCGPDPYIIIHESSKFIDQQFLKLQEIPELVPVGEMPRNLTMTCDRYLTNKVIPGTRVTIVGIYSIYNSKNGAGSGRSGGGNGGSGVAIRTPYIKILGIQSDVETSSIWNSVTMFTEEEEEEFLQLSRNPKLYEILTNSIAPSIFGNEDIKKAIVCLLMGGSKKILPDGMRLRGDINVLLLGDPGTAKSQLLKFVEKVSPIAVYTSGKGSSAAGLTASVQRDPMTREFYLEGGAMVLADGGVVCIDEFDKMRDEDRVAIHEAMEQQTISIAKAGITTVLNSRTSVLAAANPIYGRYDDLKSPGDNIDFQTTILSRFDMIFIVKDDHNEERDISIANHVINIHTGNANAMQNQQEENGSEISIEKMKRYITYCRLKCAPRLSPQAAEKLSSNFVTIRKQLLINELESTERSSIPITIRQLEAIIRITESLAKLELSPIAQERHVDEAIRLFQASTMDAASQDPIGGLNQASGTSLSEIRRFEQELKRRLPIGWSTSYQTLRREFVDTHRFSQLALDKALYALEKHETIQLRHQGQNIYRSGV
For the molecule B2, in the experiment with Mcm7, the binding result was “binds”.
